Reference: article PMC4940161, “Time-resolved studies define the nature of toxic IAPP intermediates, providing insight for anti-amyloidosis therapeutics” (eLife, 2016)
Read-outs that look alike come from different tables or passages of the source. Positions of bridges follow the written chain, without caps; N, C: chain ends. No end group written: not given here.

What was measured:
[1] = tested on: rat INS-1 β-cells; assay: Alamar Blue reduction β-cell viability assay; assay type: cell-based; details: for Toxicity to β-cells over the time course of aggregation: 20 μM peptide solutions, 14 μM final on cells, aliquots at different time points
Experimental: Rat INS-1 β-cells (832/13) were generously provided by Professor Newgard (Duke University). β-cells were grown in RPMI 1640 supplemented with 10% fetal bovine serum (FBS), 11 mM glucose, 10 mM Hepes, 2 mM L-glutamine, 1 mM sodium pyruvate, 50 µM β-mercaptoethanol, 100 U/ml penicillin, and 100 U/ml streptomycin.
(§1) Synthetic amyloidogenic and non-amyloidogenic IAPP peptides were dissolved in 1,1,1,3,3,3-Hexafluoro-2-propanol (HFIP) for 5–12 h, aliquoted and lyophilized to a dry powder. Amyloid formation was initiated by dissolving dry HFIP-treated peptides in 20 mM Tris HCl buffer (time-zero) at pH 7.4. Samples were incubated at 25°C, unless indicated otherwise. Aliquots were removed from the peptide solutions at designated time points over the course of amyloid formation or aggregation as schematically depicted in Figure 2A. The kinetic species populated within each of the three phases of amyloid formation were concurrently characterized by biophysical methods and biological assays assessing changes in metabolism, oxidative stress, inflammation and apoptosis using INS-1 β-cells and murine pancreatic islets.
Rat INS-1 β-cells were seeded at a density of 30,000 cells per well in 96-well plates 12–16 h prior to start of experiments. Hand purified islets were seeded at a density of 25–30 islets per well in 96-well plates. Amyloid formation and aggregation assays were initiated by dissolving IAPP peptides (15 μM to 80 μM stock solutions for dose-response experiments) in 20 mM Tris HCl (pH 7.4), unless stated otherwise. Peptide solutions were incubated at 25°C, or as indicated. Aliquots were removed from amyloid formation and aggregation assays at different time points and applied exogenously to rat INS-1 β-cells (5 h incubation) or murine pancreatic islets (10 h incubation). β-cells and islets were photographed by light microscopy immediately before and after toxicity experiments to assess changes in morphology. The final range of peptide concentrations examined in β-cell and islet toxicity assays after diluting IAPP peptide solutions into cell or islet culture was 10.5 μM to 56 μM in dose-response studies, unless indicated otherwise. Cell viability was measured by Alamar Blue reduction assays, which detect changes in metabolic function, and by morphological changes detected by light microscopy. Alamar Blue was diluted ten-fold in culture medium and incubated on β-cells or islets for 5 h at 37°C. Fluorescence (530 nm excitation and 590 nm emission) was measured with a Beckman Coulter DTX880 plate reader. Values were calculated relative to control β-cells or islets treated with buffer alone. Toxicity was defined as <80% viability. Light microscopy images were captured using an Olympus BX-61 light microscope.

[2] = Amyloid formation kinetics (thioflavin-T binding, TEM); assay type: physicochemical; details: 20 mM Tris HCl pH 7.4, 25°C; for Amyloid formation: thioflavin-T binding and TEM, 20 µM peptide (3xL-IAPP 40 µM), I26P-IAPP over 35+ h
Experimental: as §1
Aliquots (100 μL) were removed from amyloid formation and aggregation assays at different time points, and added to 96-well plates containing 8 μL of a 1 mM thioflavin-T solution. Fluorescence was measured using a Beckman Coulter DTX880 plate reader (445 nm excitation and 485 nm emission). Final solution conditions contained […] and 74 µM thioflavin-T (pH 7.4).
Aliquots (4 µL) were removed from amyloid formation or aggregation assays at different time points and placed on a carbon-coated 200-mesh copper grid and negatively stained with saturated uranyl acetate. The samples were imaged with a Philips CM12 or a FEI BioTwinG2 transmission electron microscope.

[3] = Photochemical induced cross-linking / SDS-PAGE oligomer distribution; assay type: physicochemical; details: 20 µM peptide, 20 mM Tris HCl pH 7.4, 25°C, at time points of h-IAPP toxicity, supernatant after 20,000 g 20 min, Tris(bipyridyl)Ru(II) cross-linking, silver stain
Experimental: Samples were cross-linked using Tris(bipyridyl)Ru(II), in the presence of ammonium persulfate. IAPP peptides were incubated for indicated times in 20 mM Tris HCl (pH 7.4) at 25°C. Aliquots were removed at indicated time points, centrifuged at 20,000 g for 20 min and added to the cross-linking solution. Samples contained a final concentration of 20 µM peptide, 70 µM Tris(bipyridyl)Ru(II) and 1.4 mM ammonium persulfate. Samples were illuminated with a 150 W incandescent bulb for 5 s, unless otherwise noted. The reaction was quenched by the addition of β-mercaptoethanol. The products were separated by SDS polyacrylamide gel electrophoresis using a 10–20% Tris-tricine gradient gel. Oligomer bands were visualized by silver staining (SilverXpress, Invitrogen). Quantitative analysis was carried out using GelAnalyzer software version 2010a. The relative intensity of each band was calculated by first correcting the baseline, then integrating the area under each peak.

[4] = tested on: rat INS-1 β-cells; details: ref Wang et al., 2014b; cited from earlier work
Excerpt: (§2) IAPP is expressed by all mammals examined to date; the amino acid sequences are ~80% conserved between species, however not all IAPP sequences are toxic or form amyloid in vivo (Figure 5—figure supplement 1) ([Betsholtz et al., 1989]; [Cao et al., 2013b]; [Westermark et al., 1990]).

[5] = ref Wang et al., 2014b; cited from earlier work
Excerpt: as §2

[6] = Solubility assay by ultracentrifugation; assay type: physicochemical; details: 20,000 g for 20 min; UV absorbance at 215 nm
Experimental: Samples of toxic lag phase intermediates or amyloid fibrils were ultracentrifuged for 20 min (20,000 g) and the protein in the soluble fraction (the supernatant) was measured by UV absorbance (215 nm) before and after ultracentrifugation using a DU 730 Life Science UV/Vis spectrophotometer (Beckman Coulter).

[7] = aliquots from peptide in 20 mM Tris HCl pH 7.4, 25°C, 14 μM (h-IAPP) or 28 μM (3xL-IAPP) final, 5 h on cells, toxicity defined as <80% viability
[8] = 1:1 addition to h-IAPP (40 µM each)

Substance: 3xL-IAPP: triple mutant of h-IAPP that lacks aromatic residues (KCNTATCATQRLANLLVHSSNNLGAILSSTNVGSNTL; ends and bridges not checked; cysteine pairing not given here; UniProt P10997 34-70, looked up, variant F15L F23L Y37L)
- β-cell viability at time point of maximum toxicity ([1]; 40 μM peptide solution (28 μM final on cells), Alamar Blue, 5 h on INS-1 β-cells, relative to buffer treated cells, mean, three replicate experiments): 67%
- Toxicity of amyloid fibrils (saturation phase) to β-cells [1, 7]: not toxic
- Toxicity of lag phase intermediates to β-cells [1, 7]: clearly still toxic
- Amyloid formation [2]: form amyloid more slowly than the human peptide

Substance: I26P-IAPP: I26P point mutant of h-IAPP; inhibitor of h-IAPP amyloid formation (KCNTATCATQRLANFLVHSSNNFGAPLSSTNVGSNTY-NH2; disulfide 2-7; ends not checked; UniProt P10997 34-70, looked up, variant I26P)
- Distribution of oligomers in solution [3]: low order oligomers
- Toxicity to β-cells over the time course of aggregation ([1]; Alamar Blue, 5 h on cells): not toxic at any time point
- Effect on duration of h-IAPP cytotoxicity ([1]; 1:1 addition to h-IAPP, 80 µM total peptide, 56 µM final on cells, time-resolved Alamar Blue): increases the duration of toxicity proportionally
- Effect on T50 of h-IAPP amyloid formation (time to 50% of total thioflavin-T signal change) [2, 8]: increased by a factor of two
- Effect on length of h-IAPP lag phase (time to 10% of total thioflavin-T signal change) [2, 8]: increased by a factor of two
- Amyloid formation [2]: non-amyloidogenic

Substance: TM-IAPP: H18R, G24P, I26P triple mutant of h-IAPP (KCNTATCATQRLANFLVRSSNNFPAPLSSTNVGSNTY-NH2; disulfide 2-7; ends not checked; UniProt P10997 34-70, looked up, variant H18R G24P I26P)
- Distribution of oligomers in solution [3]: oligomerizes
- Toxicity [4]: non-toxic
- Amyloid formation [5]: non-amyloidogenic

Substance: human islet amyloid polypeptide
- upper limit of β-sheet content: < 15%

Substance: r-IAPP: non-toxic, non-amyloidogenic rat IAPP, negative control [reference compound]
- Solubility under ultracentrifugation conditions (control) [6]: soluble
- Distribution of oligomers in solution [3]: monomers to hexamers
- Toxicity to β-cells over the time course of aggregation ([1]; Alamar Blue, 5 h on cells): not toxic at any time point
- Toxicity to β-cells, dose-response ([1]; 28, 56 and 84 µM peptide prepared directly in cell culture medium, 24, 48 or 96 h on cells, Alamar Blue): No detectable toxicity
- Toxicity over extended time course ([1]; 28 day time course, data not shown): not toxic over a 28 day time course
- Amyloid formation [2]: does not form amyloid fibrils
